In US20070122405A1 (Human Genome Sciences, published 2007):

Key:
[1] = molecular target: T1, Human G-protein Chemokine Receptor (CCR5) HDGNR10 (human, UniProt P51681 1-352); assay: cell-based or functional assay
[2] = molecular target: T1, Human G-protein Chemokine Receptor …; assay: cell-based or functional assay; remark: listed apart in the source
[3] = molecular target: T1, Human G-protein Chemokine Receptor …; assay: cell-based or functional assay; remark: listed apart in the source
[4] = molecular target: T1, Human G-protein Chemokine Receptor …; assay: cell-based or functional assay; remark: listed apart in the source
[5] = molecular target: T1, Human G-protein Chemokine Receptor …; assay: cell-based or functional assay; remark: listed apart in the source
[6] = molecular target: T1, Human G-protein Chemokine Receptor …; assay: cell-based or functional assay; remark: listed apart in the source
[7] = molecular target: T1, Human G-protein Chemokine Receptor …; assay: saturation binding of Eu-labelled antibody to CEM.NKR-CCR5 transfected cells, time resolved fluorometry
Text: (§1) The 43E2 and 43E2/AK38181 antibodies were labeled with Europium (Eu) using Dissociation-Enhanced Lanthanide Fluorescence Immunoassay (DELFIA™) Eu-labeling kit (Catalog #1244-302, Perkin Elmer Life Sciences, Boston, Mass.) following the manufacturer's instructions. The labeling agent is the Eu-chelate of N1-(p-isothiocynateobenzyl) diethylenetriamine N1, N2, N3, N3-tetraacetic acid (DTTA). The DTTA group forms a stable complex with Eu³⁺ and the isothiocynate group reacts with primary amino groups on the antibodies at alkaline pH to form a stable, covalent thiourea bond. […] The Eu³⁺ content and protein concentration of each labeled antibody was determined.
(§2) The Eu-43E2 and Eu-43E2/AK38181 saturation binding assays were performed in 96 well plates, with 0.3-0.5 million CEM.NKR-CCR5 transfected cells per well, and various concentrations of Eu-43E2 and Eu-43E2/AK38181 in the absence or presence of 100-fold excess of unlabeled CCR5mAb004 for 1 hour at room temperature (RT). […] The fluorescence emitted from the released Eu was determined by time resolved fluorometry (VICTOR 1420 DELFIA™ fluorometer, Wallac Oy, Turku, Finland). The data were analyzed on Prizm software (GraphPad Software, San Diego, Calif.) to determine the equilibrium dissociation constant (Kd).

[8] = molecular target: T1, Human G-protein Chemokine Receptor …; assay: saturation binding of Eu-labelled antibodies to CEM.NKR-CCR5 transfected cells
Text: as §1, §2

T1 sequence (P51681 whole entry): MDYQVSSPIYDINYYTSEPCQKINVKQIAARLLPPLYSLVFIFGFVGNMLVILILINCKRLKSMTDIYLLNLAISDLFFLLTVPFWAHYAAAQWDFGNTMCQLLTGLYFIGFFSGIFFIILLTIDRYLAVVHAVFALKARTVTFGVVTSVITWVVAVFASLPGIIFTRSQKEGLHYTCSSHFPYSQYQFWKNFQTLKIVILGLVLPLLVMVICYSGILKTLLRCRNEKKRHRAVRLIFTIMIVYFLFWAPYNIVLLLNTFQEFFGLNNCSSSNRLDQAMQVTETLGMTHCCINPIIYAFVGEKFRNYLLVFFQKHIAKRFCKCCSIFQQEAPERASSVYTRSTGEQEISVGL

B1: 43E2, fully human IgG4 CCR5 monoclonal antibody (secreted by cell line NS0mAb43E2) (antibody, V domains shown)
VH: QVQLVESGGGVVQPGRSLRLSCAASGFTLSGYGMHWVRQAPGKGLEWVSLISYDGSNKYYADSVKGRFTISRDDSKNTLYLRMNSLRAEDTAVYYCARGRNDFWSGYYTAGMDVWGQGTTVTVSS
VL: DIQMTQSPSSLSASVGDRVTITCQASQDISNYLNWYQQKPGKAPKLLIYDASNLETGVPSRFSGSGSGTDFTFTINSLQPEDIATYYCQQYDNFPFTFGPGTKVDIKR
notes: also called Eu-43E2
- percent of HIV-1-JRFL entry blocked at the highest concentrations tested (up to 2000 nM) [1]: ≤ 60%
- IC50 of entry of HIV-1-luciferase pseudotyped with env of 92BR025 (clade B) into U87/CD4/CCR5 cells [2]: 5.6 nM
- IC50 of entry of HIV-1-luciferase pseudotyped with env of 92RW009 (clade A) into U87/CD4/CCR5 cells [2]: 3.2 nM
- IC50 of entry of HIV-1-luciferase pseudotyped with env of 92TH001 (clade E) into U87/CD4/CCR5 cells [2]: 1.2 nM
- IC50 of entry of HIV-1-luciferase pseudotyped with env of 92UG005 (clade D) into U87/CD4/CCR5 cells [2]: 2.4 nM
- IC50 of entry of HIV-1-luciferase pseudotyped with env of 93IN101 (clade C) into U87/CD4/CCR5 cells [2]: 1 nM
- IC50 of entry of HIV-1-luciferase pseudotyped with env of 301657 (clade B) into U87/CD4/CCR5 cells [2]: 22.5 nM
- IC50 of entry of HIV-1-luciferase pseudotyped with env of 301714 (clade B) into U87/CD4/CCR5 cells [2]: 35.9 nM
- IC50 of entry of HIV-1-luciferase pseudotyped with env of 302056 (clade B) into U87/CD4/CCR5 cells [2]: 8 nM
- IC50 of entry of HIV-1-luciferase pseudotyped with env of 'Enfuvirtide Resistant' (B/Enfuvirtide Resistant) into U87/CD4/CCR5 cells [2]: 8.5 nM
- IC50 of entry of HIV-1-luciferase pseudotyped with env of ASJM108 (clade B) into U87/CD4/CCR5 cells [2]: 8.7 nM
- IC50 of entry of HIV-1-luciferase pseudotyped with env of ASM80 (clade B) into U87/CD4/CCR5 cells [2]: 7.7 nM
- IC50 of entry of HIV-1-luciferase pseudotyped with env of DU151 (clade C) into U87/CD4/CCR5 cells [2]: 2.2 nM
- IC50 of entry of HIV-1-luciferase pseudotyped with env of JRCSFSDM DIM (B/Enfuvirtide Resistant) into U87/CD4/CCR5 cells [2]: 9.7 nM
- IC50 of entry of HIV-1-luciferase pseudotyped with env of JRFL (clade B) into U87/CD4/CCR5 cells [2]: 5.5 nM
- IC50 of entry of HIV-1-luciferase pseudotyped with env of RU570 (clade G) into U87/CD4/CCR5 cells [2]: 5.2 nM
- Mean IC50 over the panel of HIV-1-luciferase pseudotyped viruses, entry into U87/CD4/CCR5 cells [2]: 8.4 nM
- Median IC50 over the panel of HIV-1-luciferase pseudotyped viruses, entry into U87/CD4/CCR5 cells [2]: 5.8 nM
- Median IC50, inhibition of HIV-1-luciferase pseudotyped viruses [3]: 5.8 nM
- IC50 (read off the curve), HIV-1-JRFL entry, Donor 1 target cells [4]: ~1000 nM
- IC50 (read off the curve), HIV-1-JRFL entry, Donor 2 target cells [5]: ~800 nM
- IC50 (read off the curve), HIV-1-JRFL entry, Donor 3 target cells [6]: ~800 nM
- Kd [7]: 2.36 nM

B2: 43E2/AK38181, fully human IgG4 CCR5 monoclonal antibody (secreted by cell line NS0mAb43E2/AK38181) (antibody, V domains shown)
VH: QVQLVESGGGVVQPGRSLRLSCAASGFTLSGYGMHWVRQAPGKGLEWVSLISYDGSNKYYADSVKGRFTISRDDSKNTLYLRMNSLRAEDTAVYYCARGRNDFWSGYYTAGMDVWGQGTTVTVSS
VL: DIQMTQSPSSLSASVGDRVTITCQASQGIRKYLNWYQQKPGKVPKLLIYDASNLETGVPSRFSGSGSGTDFTFAISSLQPEDTATYYCQQYDDFPFTFGQGTRLEIKR
notes: also called Eu-43E2/AK38181
- fold lower IC50 than 43E2, HIV-1-JRFL entry into activated human T-cells [1]: ≥ 10 fold
- fold lower IC50 than 43E2, inhibition of HIV-1 entry into U87/CD4/CCR5 cells [1]: ~3 fold
- fold lower IC90 than 43E2, inhibition of HIV-1 entry into U87/CD4/CCR5 cells [1]: ~10 fold
- IC50 of entry of HIV-1-luciferase pseudotyped with env of 92BR025 (clade B) into U87/CD4/CCR5 cells [2]: 1 nM
- IC50 of entry of HIV-1-luciferase pseudotyped with env of 92RW009 (clade A) into U87/CD4/CCR5 cells [2]: 1.1 nM
- IC50 of entry of HIV-1-luciferase pseudotyped with env of 92TH001 (clade E) into U87/CD4/CCR5 cells [2]: 0.6 nM
- IC50 of entry of HIV-1-luciferase pseudotyped with env of 92UG005 (clade D) into U87/CD4/CCR5 cells [2]: 1.4 nM
- IC50 of entry of HIV-1-luciferase pseudotyped with env of 93IN101 (clade C) into U87/CD4/CCR5 cells [2]: 1.1 nM
- IC50 of entry of HIV-1-luciferase pseudotyped with env of 301657 (clade B) into U87/CD4/CCR5 cells [2]: 4.4 nM
- IC50 of entry of HIV-1-luciferase pseudotyped with env of 301714 (clade B) into U87/CD4/CCR5 cells [2]: 5 nM
- IC50 of entry of HIV-1-luciferase pseudotyped with env of 302056 (clade B) into U87/CD4/CCR5 cells [2]: 2.3 nM
- IC50 of entry of HIV-1-luciferase pseudotyped with env of 'Enfuvirtide Resistant' (B/Enfuvirtide Resistant) into U87/CD4/CCR5 cells [2]: 2.5 nM
- IC50 of entry of HIV-1-luciferase pseudotyped with env of ASJM108 (clade B) into U87/CD4/CCR5 cells [2]: 2.2 nM
- IC50 of entry of HIV-1-luciferase pseudotyped with env of ASM80 (clade B) into U87/CD4/CCR5 cells [2]: 2 nM
- IC50 of entry of HIV-1-luciferase pseudotyped with env of DU151 (clade C) into U87/CD4/CCR5 cells [2]: 1.3 nM
- IC50 of entry of HIV-1-luciferase pseudotyped with env of JRCSFSDM DIM (B/Enfuvirtide Resistant) into U87/CD4/CCR5 cells [2]: 2.8 nM
- IC50 of entry of HIV-1-luciferase pseudotyped with env of JRFL (clade B) into U87/CD4/CCR5 cells [2]: 2.2 nM
- IC50 of entry of HIV-1-luciferase pseudotyped with env of RU570 (clade G) into U87/CD4/CCR5 cells [2]: 1.7 nM
- Mean IC50 over the panel of HIV-1-luciferase pseudotyped viruses, entry into U87/CD4/CCR5 cells [2]: 2.1 nM
- Median IC50 over the panel of HIV-1-luciferase pseudotyped viruses, entry into U87/CD4/CCR5 cells [2]: 1.7 nM
- Median IC50, inhibition of HIV-1-luciferase pseudotyped viruses [3]: 1.7 nM
- IC50 (read off the curve), HIV-1-JRFL entry, Donor 1 target cells [4]: ~100 nM
- IC50 (read off the curve), HIV-1-JRFL entry, Donor 2 target cells [5]: ~60 nM
- IC50 (read off the curve), HIV-1-JRFL entry, Donor 3 target cells [6]: ~20 nM
- fold difference in binding affinity against 43E2 [8]: ~2 fold
- Kd [7]: 1.18 nM
